In patent publication US20260009804A1 (GEORGIA TECH RESEARCH, published 2026):

How the values were obtained:
[1] = biological target: T1, mLZ (mouse myocilin leucine zipper, residues 93-171) (mouse, UniProt O70624 93-171); test: summary of ELISA and dot blot
T1 construct: Arose when Factor Xa cleaved mCCLZ after TLGR92; also called mouse leucine zipper; mouse LZ
T1 sequence: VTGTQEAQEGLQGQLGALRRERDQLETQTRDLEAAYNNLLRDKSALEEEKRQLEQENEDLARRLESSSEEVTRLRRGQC

[2] = biological target: T2, full-length endogenous human myocilin from spent medium of human trabecular meshwork (hTM) cells (human, UniProt Q99972 33-504); test: immunoprecipitation from spent hTM medium
T2 construct: Secreted protein; It was heparin-enriched for dot blots and used directly from spent medium for immunoprecipitation; also called full-length myocilin; hTM-secreted myocilin
T2 sequence: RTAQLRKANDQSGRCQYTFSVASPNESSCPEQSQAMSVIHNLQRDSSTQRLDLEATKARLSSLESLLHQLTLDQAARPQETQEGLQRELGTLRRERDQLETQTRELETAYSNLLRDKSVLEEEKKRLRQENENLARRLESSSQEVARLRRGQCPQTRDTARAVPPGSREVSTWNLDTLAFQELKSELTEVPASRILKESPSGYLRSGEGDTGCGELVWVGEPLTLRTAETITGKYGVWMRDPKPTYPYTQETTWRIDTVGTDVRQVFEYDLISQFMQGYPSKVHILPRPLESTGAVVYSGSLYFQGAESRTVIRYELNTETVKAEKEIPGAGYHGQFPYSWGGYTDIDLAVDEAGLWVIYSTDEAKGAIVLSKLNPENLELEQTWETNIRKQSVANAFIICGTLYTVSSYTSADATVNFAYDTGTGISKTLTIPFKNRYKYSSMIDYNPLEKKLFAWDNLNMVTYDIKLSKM
Method: Immunoprecipitation: Antibodies in IgG format (0.5 ng/ml) were incubated with 10 mL spent hTM medium (experiment) or 10 mL buffer control (50 mM HEPES pH 7.5, 200 mM NaCl, 10% glycerol) overnight at 4° C. on a rocker. Subsequently, Pierce™ Protein A/G Plus agarose suspension (50 μL, ThermoFisher Scientific®) was added, and samples were rocked an additional 2 hours at room temperature. Resin was pelleted by centrifugation (10 minutes at 1,000× g), washed at least 5 times with 500 uL buffer. Bound proteins were eluted by adding 50 μL 2× Laemmli buffer, incubated for 10 minutes at room temperature, followed by pelleting and removing the supernatant. Samples were supplemented to 3% v/v β-mercaptoethanol and heated 10 minutes at 95° C. prior to SDS-PAGE and Western blot analysis.

[3] = biological target: T3, hNTD (human myocilin N-terminal domain, residues 33-226) (human, UniProt Q99972 33-226); test: dot blot, purified construct
T3 construct: also called longer hNTD construct
T3 sequence: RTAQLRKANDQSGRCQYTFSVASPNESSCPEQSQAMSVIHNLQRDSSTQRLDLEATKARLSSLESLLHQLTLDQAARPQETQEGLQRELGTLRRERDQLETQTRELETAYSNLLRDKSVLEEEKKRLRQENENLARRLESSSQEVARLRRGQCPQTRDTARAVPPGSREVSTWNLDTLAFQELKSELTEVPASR
Method: (§1) Dot Blots and Western Blots: Dot and western blots were conducted using protocols previously described in detail (Patterson-Orazem, et al., Exp Eye Res, 173:109-112 (2018)). Briefly, protein samples were immobilized on methanol-activated polyvinylidene difluoride membranes (Millipore®) by electrophoresis for Western blots and by direct deposition of 2 μL sample per dot for dot blots. Membranes were blocked overnight in 2% milk in PBS supplemented with 0.5% TWEEN-20, then probed with primary antibodies. Custom scAbs were tested at 1 μg/mL; IgGs were tested at 0.5 μg/mL to account for bivalency. Protein expression in cell lysates was confirmed using 1:1000 mouse anti-His antibody (RRID: AB_2533947). […] Custom scAbs were detected with 1:2000 (whole cell lysate dot blots) or 1:5000 (all other experiments) dilution of HRP-conjugated goat anti-human κ light chain secondary antibody (RRID: AB_619883). Binding of control antibodies and custom IgGs was detected using 1:2000 (whole cell lysate dot blots) or 1:5000 (all other experiments) dilution of HRP-conjugated goat anti-mouse IgG (H+L) secondary antibody (RRID: AB_2533947).
(§2) Conformational specificity was assessed by comparing results from dot blots (FIGS. 4A-4D) and Western blots (FIG. 4E-4H), experiments were conducted in parallel with specific quantities of purified myocilin constructs. […]

[4] = biological target: T4, hCCLZ (human myocilin coiled-coil/leucine zipper, residues 69-185) (human, UniProt Q99972 69-185); test: dot blot, purified construct
T4 construct: Made in E. coli (pET-30 XaLIC); Tags were cleaved for immunization and panning; the tagged form was used in cell-lysate dot blots; also called human coiled-coil/leucine zipper
T4 sequence: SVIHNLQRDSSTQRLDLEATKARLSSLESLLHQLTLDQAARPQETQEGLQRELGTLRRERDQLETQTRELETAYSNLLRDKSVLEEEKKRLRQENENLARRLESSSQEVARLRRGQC
Method: as §1, §2

Measured: binding result

B1: 2A4 IgG (monoclonal antibody 2A4) (antibody, V domains shown)
VH: EVQLQQSGAELMRSGASVKLSCTASGFNIKDYYMHWVKQRPEQGLEWIGWIDPENGDTEYAPKFQGKATMTADTSSNTAYLQLSSLTSEDTAVYYCNPFVYWGQGTLVTVSA
VL: DIVMTQSQKFMSTSVGDRVSVTCKASQNVGTNVAWYQQKPGQSPKALIYSASYRYSGVPDRFTGSGSGTDFTLTISNVQSEDLAEYSCQQYNSYPYTFGGGTKLEIKR
notes: Full length chimeric human IgG1 with kappa light chain (IgG-Abvec and IgK-Abvec vectors), produced in CHO-K1 cells
binds: [1] | [2] | [3] | [4]
